The data set deals with T1, Rev (HIV-1) (UniProt P04618).
T1 sequence: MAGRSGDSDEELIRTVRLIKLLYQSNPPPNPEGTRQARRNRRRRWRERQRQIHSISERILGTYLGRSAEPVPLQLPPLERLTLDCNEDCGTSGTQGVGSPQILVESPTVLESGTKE
As to the kind of experiment: EMSA. As to conditions: native 4% PAGE; constant 32P-RRE RNA with 20, 40 or 80 ng Rev; buffer, salt, pH and temperature not given. On the technique in general: Mobility shift assays separate free from complexed probe on a gel.

Take “GAGAAGAGUGGUGCAGAGAGAAAAAAGAGCAGUGGGAACAAUAGGAGCUAUGUUCCUUGGGUCCUUGGGAGCAGCAGGAAGCACUAUGGGCGCAGCGUCAAUAACGCUGACGGUACAGGCCAGACAAUUACUGUCUGGUAUAGUGCAACAGCAAAACAACUUGCUGAGGGCUAUUGAGGCGCAACAACAUCUGUUGCAACUCACAGUCUGGGGCAUCAAGCAGCUCCAGGCGAGAGUCCUGGCUGUGGAAAGAUACCUAAGGGAUCAACAGCUCCUAGGGAUUUGGGGUUGCUCUGGAAGACUCAUUUGCACCACUGCUGUGCCUUGGAAUG [RREWT (40Q-45L)]”: the binding signal (% RNA shifted) came to 96.
